The text below walks through data of PMC8217500.

Usually Kd stands for the constant that tells how readily two partners part at equilibrium. Read a low Kd as a tighter complex.

The target in assay [1] is Fc-tagged SARS-CoV-2 spike receptor-binding domain (RBD) (SARS-CoV-2) (UniProt P0DTC2). Briefly: BLI; Fc-tagged RBD (20 ug/ml) loaded on anti-hIgG Fc Capture (AHC) biosensors, Fab in solution; room temperature; 1x PBS pH 7.4, 0.01% BSA, 0.002% Tween 20; 1:1 binding model. A general note: BLI is a label-free optical method that tracks binding on a fibre tip over time.
Assay [2] deals with Fc-tagged SARS-CoV-2 receptor-binding domain (RBD), wild type (SARS-CoV-2) (UniProt P0DTC2). The assay is described as follows: BLI; Fc-tagged RBD (20 ug/ml) loaded on anti-hIgG Fc Capture (AHC) biosensors, Fab in solution at four to five concentrations; Octet Red96e, room temperature, 1x kinetics buffer (1x PBS pH 7.4, 0.01% w/v BSA, 0.002% v/v Tween 20); 1:1 binding model.
In assay [3] the target is Fc-tagged SARS-CoV-2 RBD (SARS-CoV-2) (UniProt P0DTC2). The assay is described as follows: BLI; Octet Red96e, room temperature; Fc-tagged RBD (20 μg/ml) loaded on anti-hIgG Fc Capture (AHC) biosensors, Fab in solution; 1× kinetics buffer (1× PBS pH 7.4, 0.01% BSA, 0.002% Tween 20); 60 s association, 60 s dissociation; 1:1 binding model.

With CC12.3 Fab, F58 (wild type), the Kd in assay [1] was determined as 14 nM.
As for CC12.3 Fab, wild type, the Kd in assay [2] is 14 nM.
“COV107-23 Fab, Y58 variant (heavy chain F58Y)”: in assay [1], the Kd came out at 362 nM.
Consider “COV107-23 paired with the light chain of COVD21-C8 (Fab)”, for which the Kd in assay [3] was above 1000 nM.
The substance “COVD21-C8 heavy chain paired with the light chain of COV107-23 (Fab)” registered a Kd in assay [3] above 1000 nM.
